According to US6416987B1, “Mutants of thymidylate synthase and uses thereof” (Sloan Kettering Institute for Cancer Research, priority 1997, dated 2002):
Changes are numbered by the printed parent chain. Names may count otherwise. “Also recorded” adds a separate entry of the source.

B1: D49G: human TS mutant Asp49→Gly (protein)
chain: MPVAGSELPRRPLPPAAQERDAEPRPPHGELQYLGQIQHILRCGVRKDGRTGTGTLSVFGMQARYSLRDEFPLLTTKRVFWKGVLEELLWFIKGSTNAKELSSKGVKIWDANGSRDFLDSLGFSTREEGDLGPVYGFQWRHFGAEYRDMESDYSGQGVDQLQRVIDTIKTNPDDRRIIMCAWNPRDLPLMALPPCHALCQFYVVNSELSCQLYQRSGDMGLGVPFNIASYALLTYMIAHITGLKPGDFIHTLGDAHIYLNHIEPLKIQLQREPRPFPKLRILRKVGKIDDFKAEDFQIEGYNPHPTIKMEMAV
B2: wt: wild-type human thymidylate synthase (recombinant, Pro2 to Leu2 codon modification) (protein, listed as Homo sapiens)
chain: B1 chain with G49D
modifications: Wild type human thymidylate synthase amino acid sequence (Genbank Accession number NP001062)
B3: L221A: human TS mutant Leu221→Ala (protein)
chain: B1 chain with G49D, L221A
B4: L221I: human TS mutant Leu221→Ile (protein)
chain: B1 chain with G49D, L221I
B5: D49N: human TS mutant Asp49→Asn (protein)
chain: B1 chain with G49N
B6: R50C: human TS mutant Arg50→Cys (protein)
chain: B1 chain with G49D, R50C
B7: G52S: human TS mutant Gly52→Ser (protein)
chain: B1 chain with G49D, G52S
B8: F225Y: human TS mutant Phe225→Tyr (protein)
chain: B1 chain with G49D, F225Y
B9: I108F: human TS mutant Ile108→Phe (protein)
chain: B1 chain with G49D, I108F
B10: L221F: human TS mutant Leu221→Phe (protein)
chain: B1 chain with G49D, L221F
B11: T51A: human TS mutant Thr51→Ala (protein)
chain: B1 chain with G49D, T51A
B12: K47E: human TS mutant Lys47→Glu (protein)
chain: B1 chain with K47E, G49D
B13: L221S: human TS mutant Leu221→Ser (protein)
chain: B1 chain with G49D, L221S
B14: F225L: human TS mutant Phe225→Leu (protein)
chain: B1 chain with G49D, F225L
B15: F225S: human TS mutant Phe225→Ser (protein)
chain: B1 chain with G49D, F225S
B16: F59L: human TS mutant Phe59→Leu (protein)
chain: B1 chain with G49D, F59L
B17: L221R: human TS mutant Leu221→Arg (protein)
chain: B1 chain with G49D, L221R
B18: Q214R: human TS mutant Gln214→Arg (protein)
chain: B1 chain with G49D, Q214R
B19: pcDNA3hTS270: human TS mutant Ile108→Gly (protein, UniProt P04818 2-313, looked up, variant I108G)
Thymidylate synthase: PVAGSELPRRPLPPAAQERDAEPRPPHGELQYLGQIQHILRCGVRKDDRTGTGTLSVFGMQARYSLRDEFPLLTTKRVFWKGVLEELLWFIKGSTNAKELSSKGVKGWDANGSRDFLDSLGFSTREEGDLGPVYGFQWRHFGAEYRDMESDYSGQGVDQLQRVIDTIKTNPDDRRIIMCAWNPRDLPLMALPPCHALCQFYVVNSELSCQLYQRSGDMGLGVPFNIASYALLTYMIAHITGLKPGDFIHTLGDAHIYLNHIEPLKIQLQREPRPFPKLRILRKVEKIDDFKAEDFQIEGYNPHPTIKMEMAV
B20: pcDNA3hTS271: human TS mutant Ile108→Glu (protein, UniProt P04818 2-313, looked up, variant I108E)
Thymidylate synthase: B19 Thymidylate synthase with G107E
B21: pcDNA3hTS272: human TS mutant Ile108→Asn (protein, UniProt P04818 2-313, looked up, variant I108N)
Thymidylate synthase: B19 Thymidylate synthase with G107N

test system: human thymidylate synthase; assay: Kinetic parameters of wild-type and mutant human thymidylate synthases; type: biochemical; settings: not given
Description: TS activity was monitored spectrophotometrically at 340 nm as described (Wahba et al., 1961). Activity was determined at 30° C. The assay mixture contained 50 mM Tris.HCl, pH 7.4, 25 mM MgCl2, 6.5 mM formadehyde, 1 mM EDTA, 75 mM BME and 100 μM dUMP, CH2H4folate (100 μM) was added to initiate the reaction. Black cuvettes lacked CH2H4folate. A unit of activity is defined as the amount of enzyme required to convert 1 μmol of dUMP to dTMP/minutes at 30° C. Protein was determined from OD280=0.87×10^5 M^−1 cm^−1, which is equivalent to 1.43 OD280/mg of protein.
Michaelis constants (Km's) for CH2H4folate and dUMP were determined from initial velocity measurements, which were obtained by measuring the change in OD340 with a Shimadzu UV-2101 PC spectrophotometer. […] Steady-state kinetic parameters were subsequently obtained by a nonlinear least-squares fit of the data to the Michaelis-Menten equation using a computer program. The kcats were calculated by dividing Vmax by the estimated concentration of enzyme used in the reaction.

Molecule	increase of Km for CH2H4folate over wild-type	increase of Km for dUMP over wild-type	kcat	kcat lower than wild-type TS
B1	4 fold	4 fold	0.16 s⁻¹	3 fold
B2			0.68 s⁻¹	

same assay, conditions: CH2H4folate 3 mM; read-out: Km (dUMP)

Molecule	Km
B1	12 µM
B2	4.4 µM

same assay, conditions: dUMP fixed at 200 μM; read-out: Km (CH2H4folate)

Molecule	Km
B1	122 µM
B2	32.4 µM

test system: Mouse TS-negative cells (FSthy21); assay: Rescue of TS-negative cells by transfection of human TS cDNAs; type: cell-based; settings: selective medium lacking thymidine
Text: Mouse TS-negative cells (FSthy21) were transfected with a plasmid (pcDNA3hTS*) encoding wild-type or a various mutant human TS enzyme by standard DOTAP transfection procedures. The host cells are deficient in TS, which are unable to survive without exogenous thymidine. […] In contrast, cells were unable to survive with transfection of other 11 human TS variants. For each surviving transfectant, at least 12 individual clones were isolated by soft agar or limiting dilution in 96-well plates. Those clones were expanded to cell lines by growth in normal media. Three cell clones for each transfectant were randomly selected for drug sensitivity assay.

Molecule	TS catalytic function / complementation of growth of TS-negative cells
B1	able to complement growth; also recorded: retain TS catalytic function; also recorded: able to allow growth
B3	able to complement growth
B2	able to complement growth
B4	able to complement growth
B5	not tolerated
B6	catalytically inactive
B7	able to complement growth; also recorded: retain TS catalytic function; also recorded: able to allow growth
B8	able to complement growth; also recorded: active enzymes
B9	able to complement growth; also recorded: functional
B10	inactive
B11	not tolerated
B12	able to complement growth; also recorded: retain TS catalytic function; also recorded: able to allow growth
B13	able to complement growth
B14	able to complement growth; also recorded: active enzymes
B15	severely diminished TS catalytic activity

same assay, conditions: selective medium without thymidine

Molecule	FM3A TS cells surviving by transfection
B1	yes
B3	yes
B2	yes
B4	yes
B5	no
B16	no
B6	no
B7	yes
B8	yes
B9	yes
B10	no
B11	no
B17	no
B12	yes
B18	no
B13	yes
B14	yes
B15	no
B19	no
B20	no
B21	no
